{
  "source": "the nanobody polyreactivity screen of Harvey et al. (2022)",
  "data": [
    {"test": "yeast display, Sf9 membrane polyspecificity reagent, FACS + sequencing; frameworks hold sequencing errors", "how_it_was_run": "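Nanobodies came from a synthetic yeast display library in Saccharomyces cerevisiae BJ5465, induced with galactose for 36–48 hours and stained for 1 hour at 4 °C with 10% biotinylated, detergent-solubilized Sf9 membrane reagent. Cells were enriched on streptavidin microbeads and then FACS-sorted, with low and high (top ~1%) gates set on anti-HA fluorescence for expression and streptavidin fluorescence for reagent binding. Each polyreactivity label reflects the gate a clone came from. Genes were amplified by colony PCR, sequenced by MiSeq 2 × 250 and filtered by CDR length.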", "values": [
      {"sequence": "QVQLVESGGGLVQAGGSLRLSCAASGSILSTYAMGWYRQAPGKERELVASISSNAGSTYYADSVKGRFTISRDNAKNTVYLQMNSLKPEDTAVYYCATESYVEGDYWGQGTQVTVSS", "polyreactivity (PSR sort gate)": "low polyreactivity"},
      {"sequence": "QVQLVESGGGLVQAGGSLRLICAGSGSTFPTYAMGWYRQAPGKERELVAAITSGSGTNTYYADSVKGRFTISRDNAKNTVYLQMNSLKPEDTAVYYCAASGGKNGMNYWGQGTQVTVSS", "polyreactivity (PSR sort gate)": "high polyreactivity"},
      {"sequence": "QVQLVESGGGLVQAGGSLRLSCAASGRTFWYYAMGWNRQAPGKERELVAAITRGTSTYADSVKGRFTISRDNAKNTVYLQMNSLKPEDTAVFYCAADTWVTRNSRYDYWGQGTQVTVSS", "polyreactivity (PSR sort gate)": "high polyreactivity"},
      {"sequence": "QVQLVESGGGLVQAGGSLRLSCADSGFTFGRYAMRWYRQATGKERELVAAISRGGSYTYYADSVKGRLTISRDNAQNTVFLQMNSLKPEDTAVYYCNIVIIWARFDYWRQGTQVTVSS", "polyreactivity (PSR sort gate)": "high polyreactivity"},
      {"sequence": "QVQLVESGGGLVQAGGSLRLSCAASRSIFPYNVMGWYRQAPGTEMELVAAISTRGGRTYYADSVKGRFTISRDYAKNTVYLQMNSLKPEDTAVYYCATAGGPYSDSGYYWGHGTQVTVSS", "polyreactivity (PSR sort gate)": "high polyreactivity"},
      {"sequence": "QVQLVESGGGLVQAGCSLRLSCAASGRTFDDYAMGWYRQAPGKERELVAAISSRCGSTYYADSVKGRFTISRDNAKNSVYLQMNSLKPEDTAVYYCNTLQSSHGSSQYDSWGQGTQVTVSS", "polyreactivity (PSR sort gate)": "low polyreactivity"},
      {"sequence": "QDQLVESGGGLVQAGGSLRLSCAASGSIFFTNDMGWYRQAHGKEREFVAAITGGGGSTYYADSVKGRFTISRDNAKNTVYLQMNSLKPEDTAVYYCATKAKPRSGYNYWGQGTQVTVSS", "polyreactivity (PSR sort gate)": "low polyreactivity"},
      {"sequence": "QVQLVESGGGLVQAGGSLRLSCAASGRIFRYYAMGWYRQAPGKERELVAAITRGGSTNYADSVKGRFTISRDNAKNTVYLQMNSLKPEDSAVFYCATRESCYPRWMDYWGQGTQVTVSS", "polyreactivity (PSR sort gate)": "high polyreactivity"},
      {"sequence": "QVQLVESGGGLVQAGGSLRLSCAASGTFSNYAMGWYRQAPGKERELVAGISKRGGSTYYADSVKGRFTISRDNAKNTVYLQMNSLKPEDTAVYYCRVYAYDYWGQGTQVTVSS", "polyreactivity (PSR sort gate)": "low polyreactivity"},
      {"sequence": "QVQLVESGGGLVQAGGSLRLSCAACGSTFNGYTMGWYRQAPGKERELVAAISKSGGRTYYADSVKGRFTISRDNAKNTVYLQMNSLKPEDTAVYYCNKLTQSSYGWGQGTQVTVSS", "polyreactivity (PSR sort gate)": "high polyreactivity"},
      {"sequence": "QVQLVESGGGLVQAGGSLRLSCAAYGFIFSYYAMGWFRQAPGKEREFVATITWRGGSTYYADSVKGRFTISRDNAKNTVYLQMNSLKPEDTAVYYCAARKRTPGYGYWGQGTQVTVSS", "polyreactivity (PSR sort gate)": "high polyreactivity"},
      {"sequence": "QVQLVESGGGLVQAGGSLRLSCAASGSIFAPYDMGWYRQAPGKERELVAAIDWGGDSTYYADSVKGRFTISRDNAKNTVYLQMNSLKPEDTAVYYCAADDLWLSYRTEYDYYYWGQGTQVTVSS", "polyreactivity (PSR sort gate)": "low polyreactivity"},
      {"sequence": "QVQLVESGGGLVQAGGSLRLSCAASGSTFYYYAMGWYRPAPGKERELVAAINYNGGSTHYADSVKGRFTISRDNAKNTVYLQMNSLKPEDTAVYYCAAKYRLSYTHGYWGQGTQVTVSS", "polyreactivity (PSR sort gate)": "low polyreactivity"},
      {"sequence": "QVQLVESGGGLVQAGGSLRLSCAASGSTVYYNAMGWYRQAPGKERELVAAISRSGGRTYYADSVKGRFTISRDNAKNTVYLQMNSLKPEDTAVYYCAADAPGHEYYYWGQGTQVTVSS", "polyreactivity (PSR sort gate)": "high polyreactivity"},
      {"sequence": "QVQLVESGGGLVQAGGSLRLRCAASGSNFNPYAMGWYRQAPGKERELVAAINSRGGSTYYADSVKGRFTISRDNANNTVYLQMNSLKPQDTAVYYCAARTRRRTSAYEYWGQGTQVTVSS", "polyreactivity (PSR sort gate)": "high polyreactivity"},
      {"sequence": "QVQLVESGGGLVQAGGSLRLTCAASGSTFVRYVMGWYRQAPGKERELVAAISRRGGSTYYADSVKGRFTISRDNANNTVYLQMNSLKPEDTAVYYCARTVGYRTLLESDSWGQGTQVTVSS", "polyreactivity (PSR sort gate)": "high polyreactivity"},
      {"sequence": "QVQLVESGGGLVQAGGSLRLSCAASGRIFPNNAMGWYRQAPGKERELVAAITSIGGSTYYADSVKGRFTISRDNAKNTVYLQMNSLKPEDTAVYYCAARWERFVPTGRFSYYYYYWGQGTQVTVSS", "polyreactivity (PSR sort gate)": "high polyreactivity"},
      {"sequence": "QVQLEESGGGLVQAGGSLRLSCAASGRIFGIYAMGWYRQAPGKERELVASITDGTITNYADSVKGRFTISRDNAKNTVYLQMNSLKPEDTAVYYCAAGTQAHAFVVRPIEMDYWGQGTQVTVSS", "polyreactivity (PSR sort gate)": "low polyreactivity"},
      {"sequence": "QVQLVESGGGLVQAGGSLRLSCAASGSIFRWYAMGWYRQAPGKERELVAAITGSGGRTYYADSVKGRFTISRDNAKNTVYLQMNSLNPEDTAVYYCATRYGREDYWGQGTQVTVSS", "polyreactivity (PSR sort gate)": "high polyreactivity"},
      {"sequence": "QVQLVESGGGLVQAGGSLRLSCAASGFIFHPNTMGWYRPAPGKERELVAGISYSGGITYTDSVKGRFTISRDNAKNTVYLQMNSLQPEDTAVYYFNARTKVAYYRHYYWGQGTQVTVSS", "polyreactivity (PSR sort gate)": "low polyreactivity"},
      {"sequence": "QVQLVESGGGLVQAGGSLRLSCAASGSTFLDNAMGWYRQAPGKERELVAAITQSGSSTYYADSVKGRFTISRDNAKNTVYLQMNSLKPEDTAVYYCAADVPNISFDYWGQGTQVTVSS", "polyreactivity (PSR sort gate)": "low polyreactivity"},
      {"sequence": "QVQLVESGGGLVQAGGSLRLSCAASGSTIGSYAMGWYRQAPGKERELVAAITWNGGGTYYADSVKGRFTISRDNAKNTVYLQMNSLKPEDTAVYYCAADGWFGRVAPGSDYWGQGTQVTVSS", "polyreactivity (PSR sort gate)": "low polyreactivity"},
      {"sequence": "QVQLVESCGGLVQAGGSLRLSCAASGRTFVTYAMGWYRQAPGKERELVAAISASGGSTYYADSVKGRFTISRDNAKNTVYFQMNSLKPEDTAVYYCAKTYFLATPYGYWGQGTQVTVSS", "polyreactivity (PSR sort gate)": "low polyreactivity"},
      {"sequence": "QVQLLESGVGLVQAGGSLRLSCAASGFSFGAYTLGWYRQAPRKERELVAAIRGSGGSTYYADSVKGRFTISRDNAKNTVYFQINSLKPDDTAVYYCAKTLTYGFRRYDYWGQGTQVTVSS", "polyreactivity (PSR sort gate)": "high polyreactivity"},
      {"sequence": "QVQLVESGGGLVQAGGSLRLSCAASGYILFAYAMGWYRQAPGKERELVATITTSGGITYYADSVKGRFTISRDNAKNTVYLQMNSLKPEDTAVYYCAAAEGGGLVTYDYWGQGTQVTVSS", "polyreactivity (PSR sort gate)": "low polyreactivity"},
      {"sequence": "QVQLVESGGGLVQAGGSLRLSCAASGSIFGYAMGWYRQAPGKERELVAAIRWGGGSTYYADSVKGRFTISRDNAKYNVYLQMNSLKPEDTAVYYCAARVGRQWYDYWGQGTQVTVSS", "polyreactivity (PSR sort gate)": "high polyreactivity"},
      {"sequence": "QVQLVESGGGLVQAGGSLRLSCAASGIIFYWYAMGRYRQAPGKERELVATINSTGGSTNYADSVKVRFTISRDNAKNTVYLQMNSLKPEDTAVYYCAKDWNDDQHSWDTPFDYWGQGTQVTVSS", "polyreactivity (PSR sort gate)": "low polyreactivity"},
      {"sequence": "LDQLVESGGGLVQAGGSLRLSCAASGSIFGPNAMGWNRKAPGKERELVAAISWSGASTYYADSVKGRFTITRDNEKNTVYLQMNSLKPEDTAVYYCAADYYGVSGSGYGYWGQGTQVTVSS", "polyreactivity (PSR sort gate)": "low polyreactivity"},
      {"sequence": "QLQLQESGGGLVQAGGSLRLSCAWSGTIAFTRDLGSYRQAPGKDREFVASIDRGASTYYADSVKGRFTISRDNAKNTVYLQMNSLKPEDTAVYYRAVIAPFYSSFAYWGQGTQVTVSS", "polyreactivity (PSR sort gate)": "high polyreactivity"},
      {"sequence": "QVHLVESGGGLVQAGGSLRLSCAASGFIFIRYAMGWYRQAPGKERELVAAINGGGSSTYYADSVKGRFTISRDNAKYTVYLQMNSLKPEDTAVDYCDADTDSWWYYLYYGDGFDYWGQGTQVTVSS", "polyreactivity (PSR sort gate)": "high polyreactivity"},
      {"sequence": "QVQLVESGGGLVQAGGSLRLSSAASGRTFRHYALGWSRQAPGKERELVAVISWRGTGTYYADSVKGRFTISRDNAKNTVYLQMTSLKPEDTSVYYCATVWGLGYRMNYWGQGTQVTVSS", "polyreactivity (PSR sort gate)": "high polyreactivity"},
      {"sequence": "QVQLVESGGGIVQAGGSLRLSSAASGFTFYKYVMGWYRQSPGKERELVAAISYSSGSTYYADSVKGRFTISRDNAKNTVYLKMNSLKPDDTAVYYCAADSTYYGYAYYYWGQGSQVTVSS", "polyreactivity (PSR sort gate)": "high polyreactivity"},
      {"sequence": "QVQLVESGGGLVQAGGSLRLSCAPSGNIFGYYVMAWYRQAPGTERELVAAITWSAGTTNYADSVKGRFTISRDNAKNTVYLQMNSLKPEDTAVYYFAVTWWYQDYDLTWYLYDYWGQGTEVTVSS", "polyreactivity (PSR sort gate)": "low polyreactivity"},
      {"sequence": "QVQVVESGGGLVQAGGSLRLSCAASGITFWGYAMGWYRQAPGKERELVAAITRTGSTYYADSVKGRFTISRDNAKNTVYLQMNSLKPEDTALYYCAAYTPNASTYRRKSSKKVYYWGQGTQVTVSS", "polyreactivity (PSR sort gate)": "high polyreactivity"},
      {"sequence": "QVQHVESGRGLVQAGGSLRLSCAASGFIFRLYAMGWYRQAPGKERELVAAISRGGSTTYADSVKGRFTISRDNAKNTVYLQMYSLKPEDTAVYYCATEGDLVAYLYDYWGQGTQVTVSS", "polyreactivity (PSR sort gate)": "low polyreactivity"},
      {"sequence": "QVQLVESGGGLVQAGGSLRLSCAASGRIFVSYAMGWYRQAPGKERELVAAISRGGSTYYADSVKGRFTISRDNAKNTVYLQMNSLKPEDTAVYYCAARPSYRYGYWGQGTQVTVSS", "polyreactivity (PSR sort gate)": "high polyreactivity"},
      {"sequence": "QVQLVESGGGLVQAGGSLRLSCAASGRIINDYTMGWYRQAPGKERELVAAITTSTGSTYADSVKGRFTISRDNAKNTVYLQMNSLKPEDTAVYYCAADSRPGKYYEDDSWGQGTQVTVSS", "polyreactivity (PSR sort gate)": "low polyreactivity"},
      {"sequence": "QVQLVESGGGLVQAGGSLRLSCAASGGTFPWYTMGWYRQAPGKERELFAAISWRGGRTYYADSVKGRFTISRDNAKNTVYLQMNSLKPEDTAVYYCAATPRYRVYYGSYYLRYDYWGQGTQVTVSS", "polyreactivity (PSR sort gate)": "high polyreactivity"},
      {"sequence": "QVQLVETGGGLVQAGGSLRLSCAASGGIIRVYVMGWYIQAPGKERELVAAISRRGGSTYYADSVKGRFTISRDNAKNTVYLKMNSLKPEDTAVYYCAAYSTGTEFDYWGQGTQVSVSS", "polyreactivity (PSR sort gate)": "high polyreactivity"},
      {"sequence": "QVQLVESGGGLFQAGGSLRLSCAASGSIFRVYGMGWYRQAPGKERDLVAAITWSGGSTYYADSVKGRFTISRDNAKNTLYVQINSLKPDATAVYYCAARARPRYYRPPYDYWGQGTQVTVSS", "polyreactivity (PSR sort gate)": "high polyreactivity"},
      {"sequence": "QVQLVESGGGLVQAGGSLRLSCAASGRTIYTYAMGWYRQAPGKERELVAAITKRGGSTYYADSVKGRFTISRDNAQNTVYLQMNSLKPEDTAVYYCNKELATARGQSLYRTYSGYGYWGQGTQVTVSS", "polyreactivity (PSR sort gate)": "high polyreactivity"},
      {"sequence": "QVQLVESGAGLFQAGGSLRLSCAASGRIFNQYGMAWYRQAPGKERELVAAIRSGDSTNYADSVKGRFTISRDNAKNTVFLQMNSLKPEVTAVYYCARDRPGDYDGYDYCGQGTQVTVSS", "polyreactivity (PSR sort gate)": "low polyreactivity"},
      {"sequence": "QVQLVESGGGLVQAGGSLRLSCAASGSIFRRYDMGWYRQAPGKERELVAAISSSGGSTYYADSVKGRFTISRDNAKNTVYLHMKSLKPEDTAVYYCAADIYDYDRSEYTEYDYWGQGTQVTVSS", "polyreactivity (PSR sort gate)": "low polyreactivity"}
    ]}
  ]
}
